The data set “AUC” concerns the molecule itself. Description: AUC.
Data set [1] concerns the molecule itself. Description: thioflavin T fluorescence.

Changes are numbered by the printed parent chain. Names and notes keep the numbering of the source.

B1: emerin fragment from amino acid 1 to amino acid 187 (EmN), wild type, His-tagged (domain or fragment, human, UniProt P50402 1-187, looked up)
chain: MDNYADLSDTELTTLLRRYNIPHGPVVGSTRRLYEKKIFEYETQRRRLSPPSSSAASSYSFSDLNSTRGDADMYDLPKKEDALLYQSKGYNDDYYEESYFTTRTYGEPESAGPSRAVRQSVTSFPDADAFHHQVHDDDLLSSSEEECKDRERPMYGRDSAYQSITHYRPVSASRSSLDLSYYPTSSS
For the protein B1, the stoichiometry N (as a rule, the number of molecules, sites or subunits per partner or assembly) in “AUC” was found to be 2.

B2: EmN variant Q133H (domain or fragment, human, UniProt P50402 1-187, looked up)
chain: B1 chain with Q133H
Turning to B2, the binding result in data set [1] is listed as “binds”.

B3: EmN variant S54F (domain or fragment, human, UniProt P50402 1-187, looked up)
chain: B1 chain with S54F
Regarding B3, the binding result in data set [1] was “binds”.

B4: EmN variant P183H (domain or fragment, human, UniProt P50402 1-187, looked up)
chain: B1 chain with P183H
With B4, the binding result in data set [1] is on record as “binds”.

B5: emerin fragment from amino acid 1 to amino acid 187 (EmN), wild type, His-tag cleaved (domain or fragment, human, UniProt P50402 1-187, looked up)
chain: B1 chain
As to B5, the “fold increase in ThT fluorescence intensity at 480 nm” value in data set [1] amounted to 10 fold.

B6: EmN variant P183T (domain or fragment, human, UniProt P50402 1-187, looked up)
chain: B1 chain with P183T
For the protein B6, the binding result in data set [1] is “binds”.

The values above are taken from article PMC4869717 (ACS chemical biology, 2015).
